Measured values reported in patent US8987192B2, “Potent and selective mediators of cholesterol efflux” (The Regents of the University of California, priority 2006, dated 2015).
Entries after “also recorded” stand apart in the source; their conditions may differ.

Target: ABCA1 (Mus musculus, UniProt P41233)
Assay: Cholesterol efflux from [3H]cholesterol-labeled ABCA1-expressing J774 mouse macrophages
Type: cell-based
Design: to upregulate cellular ABCA1 protein; endogenous in cells; host or cells: J774 mouse macrophages
Conditions: for ABCA1-dependent cholesterol efflux at 30 μg/ml: 30 μg/ml peptide; for efficiency of ABCA1 cholesterol efflux (concentration dependence): concentration dependence curves; for ABCA1-dependent cholesterol efflux: macrophages with vs without cAMP; for capacity to stimulate cholesterol efflux at 3 μg/ml: 3 μg/ml lipid-free peptide, ABCA1-expressing macrophages; for cholesterol efflux from macrophages not induced for ABCA1 (non-specific): no cAMP
Experimental: In some embodiments, a polypeptide known to mediate cholesterol efflux (e.g., helix 9/10 of Apo A-I) is used to screen for additional mediators of cholesterol efflux in a cell based assay. For example, cell lines in which cholesterol efflux can be enhanced using a cAMP analog that up-regulates ABCA1 protein expression (e.g., J774 macrophages) can conveniently be used to assess the ability of a polypeptide of the present invention to mediate cholesterol efflux. The cells are incubated with labeled cholesterol (e.g., [^3H]cholesterol) under conditions appropriate for cholesterol uptake by the cells. Thus, cAMP or cAMP analogs (e.g., CPT-cAMP) are incubated with the cells for a suitable time before the initiation of cellular cholesterol efflux, i.e., prior to contacting the cells with a test polypeptide. Measurement of labeled cholesterol appearing in the medium is used to determine the cholesterol efflux mediating activity of the test polypeptide.
J774 mouse macrophages labeled with [^3H]cholesterol were treated (20 h) with 22-hydroxycholesterol (10 μM)/cis-retinoic acid (10 μM) to upregulate cellular ABCA1 protein.
Mouse macrophages were labeled with [^3H]cholesterol and treated with a cAMP analog to induce ABCA1 expression. […] Km values were calculated using the Michaelis-Menton equation and GraphPad Prism4 software.
Inverted sequence peptides synthesized with all L-amino acids and all D-amino acids were tested for cholesterol efflux activity using ABCA1 expressing J774 macrophages.
Two peptide analogs were engineered; the first replacing glutamic acid residues (E) at position 8 and 15 with aspartic acid residues (D), i.e., E8, 15>D polypeptides, and the second, replacing E1, 7, 8, 15, 18, 19 with D, i.e., all D (Asp) polypeptide. Cholesterol efflux activity was determined using J774 macrophages treated with and without a cAMP analog to modulate ABCA1 expression.
The impact of the A12>L substitution was also tested for activity, which also expanded non-polar surface area.
1-palmitoyl-2-oleoyl-phosphatidylcholine (POPC) was used to evaluate the cholesterol efflux properties of a formulated polypeptide of the present invention. […] To test cholesterol efflux activity, J774 mouse macrophages were labeled with [^3H]cholesterol and treated with and without cAMP to modulate ABCA1 expression.

ABCA1, sequence (P41233 whole entry): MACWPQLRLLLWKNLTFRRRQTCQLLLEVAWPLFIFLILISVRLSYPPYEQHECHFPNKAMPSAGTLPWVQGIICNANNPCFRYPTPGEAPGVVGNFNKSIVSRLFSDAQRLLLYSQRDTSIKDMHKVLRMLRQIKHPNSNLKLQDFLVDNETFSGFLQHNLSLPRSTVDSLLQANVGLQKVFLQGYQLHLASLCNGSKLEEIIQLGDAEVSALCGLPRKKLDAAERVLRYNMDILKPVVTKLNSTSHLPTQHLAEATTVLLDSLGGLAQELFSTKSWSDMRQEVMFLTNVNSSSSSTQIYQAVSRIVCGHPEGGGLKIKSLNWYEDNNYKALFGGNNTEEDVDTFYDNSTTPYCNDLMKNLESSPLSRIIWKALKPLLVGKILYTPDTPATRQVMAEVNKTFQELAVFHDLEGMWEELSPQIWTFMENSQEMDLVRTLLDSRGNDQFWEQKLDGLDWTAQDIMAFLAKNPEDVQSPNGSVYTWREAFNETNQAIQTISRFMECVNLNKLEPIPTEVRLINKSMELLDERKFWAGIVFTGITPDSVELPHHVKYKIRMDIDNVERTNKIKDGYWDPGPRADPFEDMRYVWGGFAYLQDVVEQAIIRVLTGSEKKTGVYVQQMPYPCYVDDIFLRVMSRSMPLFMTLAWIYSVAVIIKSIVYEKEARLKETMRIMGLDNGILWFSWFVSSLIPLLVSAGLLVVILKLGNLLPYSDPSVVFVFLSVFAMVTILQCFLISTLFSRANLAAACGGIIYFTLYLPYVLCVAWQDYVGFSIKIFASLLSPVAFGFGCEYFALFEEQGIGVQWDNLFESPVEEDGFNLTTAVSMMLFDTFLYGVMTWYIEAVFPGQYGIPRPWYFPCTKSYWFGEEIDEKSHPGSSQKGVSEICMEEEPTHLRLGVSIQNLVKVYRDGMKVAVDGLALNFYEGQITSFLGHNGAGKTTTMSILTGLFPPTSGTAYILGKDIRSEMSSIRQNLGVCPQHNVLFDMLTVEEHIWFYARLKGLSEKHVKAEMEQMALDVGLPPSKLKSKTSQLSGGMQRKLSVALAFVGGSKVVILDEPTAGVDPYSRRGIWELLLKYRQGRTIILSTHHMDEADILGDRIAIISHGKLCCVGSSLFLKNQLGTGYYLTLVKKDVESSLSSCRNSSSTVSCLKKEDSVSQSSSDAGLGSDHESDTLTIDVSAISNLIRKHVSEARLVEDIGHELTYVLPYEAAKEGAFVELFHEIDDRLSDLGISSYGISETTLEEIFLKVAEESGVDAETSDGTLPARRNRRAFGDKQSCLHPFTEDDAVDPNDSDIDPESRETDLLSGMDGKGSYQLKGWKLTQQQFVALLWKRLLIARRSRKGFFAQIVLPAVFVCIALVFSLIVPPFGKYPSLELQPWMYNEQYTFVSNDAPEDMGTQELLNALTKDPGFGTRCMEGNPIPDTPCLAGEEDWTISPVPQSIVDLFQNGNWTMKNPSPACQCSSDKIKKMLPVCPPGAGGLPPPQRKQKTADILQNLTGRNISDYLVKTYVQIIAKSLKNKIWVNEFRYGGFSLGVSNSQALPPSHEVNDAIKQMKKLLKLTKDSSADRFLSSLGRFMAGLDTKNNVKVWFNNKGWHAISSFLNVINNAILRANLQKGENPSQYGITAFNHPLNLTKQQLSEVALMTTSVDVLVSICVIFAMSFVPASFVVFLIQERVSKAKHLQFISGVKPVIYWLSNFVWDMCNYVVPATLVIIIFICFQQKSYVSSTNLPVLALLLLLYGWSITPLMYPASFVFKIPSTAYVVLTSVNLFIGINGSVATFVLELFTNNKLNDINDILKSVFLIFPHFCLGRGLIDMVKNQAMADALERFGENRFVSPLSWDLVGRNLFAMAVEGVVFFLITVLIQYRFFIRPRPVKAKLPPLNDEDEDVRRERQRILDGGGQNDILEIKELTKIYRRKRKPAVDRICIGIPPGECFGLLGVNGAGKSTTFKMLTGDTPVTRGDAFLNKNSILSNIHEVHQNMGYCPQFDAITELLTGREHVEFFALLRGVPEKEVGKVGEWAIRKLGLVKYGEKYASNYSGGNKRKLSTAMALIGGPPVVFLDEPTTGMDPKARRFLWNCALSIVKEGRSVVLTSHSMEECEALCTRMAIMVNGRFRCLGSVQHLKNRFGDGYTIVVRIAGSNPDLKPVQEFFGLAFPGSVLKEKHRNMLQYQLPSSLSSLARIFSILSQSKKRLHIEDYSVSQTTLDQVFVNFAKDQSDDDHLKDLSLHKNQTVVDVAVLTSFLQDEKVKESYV

Substance: R14→Q: SEQ ID NO:5 with arginine 14 replaced by glutamine (EVRSKLEEWFAAFQEFFEEFLARLKS; S1 amphipathic alpha-helix polypeptide core sequence selectively binds HDL, high-affinity ligand for ATP- binding cassette transporter A1 (ABCA1), ABCA1-lipid cholesterol efflux, ABCA1-stablization, anti-oxidant and anti-inflammatory activity)
- ABCA1-dependent cholesterol efflux at 30 μg/ml: mediated cholesterol efflux in an ABCA1 dependent manner
- efficiency of ABCA1 cholesterol efflux (concentration dependence): high efficiency

Substance: A12>L: A12>L substitution analogs of SEQ ID NO:4 (EVRSKLEEWFALFREFAEEFLARLKS; ATI-5261 amphipathic alpha-helix polypeptide core sequence selectively binds HDL, high-affinity ligand for ATP-binding cassette transporter A1 (ABCA1), ABCA1-lipid cholesterol efflux, ABCA1-stablization, anti-oxidant and anti- inflammatory activity)
- ABCA1-dependent cholesterol efflux: stimulated cholesterol efflux from macrophages in an ABCA1-dependent manner

Substance: R3, 14, 23→Q3, 14, 23: SEQ ID NO:5 with arginines 3, 14, 23 changed to glutamine (EVQSKLEEWFAAFQEFFEEFLAQLKS; S1 amphipathic alpha-helix polypeptide core sequence selectively binds HDL, high-affinity ligand for ATP- binding cassette transporter A1 (ABCA1), ABCA1-lipid cholesterol efflux, ABCA1-stablization, anti-oxidant and anti-inflammatory activity)
- efficiency of ABCA1 cholesterol efflux (concentration dependence): reduced efflux efficiency
- ABCA1-dependent cholesterol efflux: greatly reduced efflux capacity

Substance: 25-mer: SEQ ID NO:5 lacking the C-terminal Ser26 (EVRSKLEEWFAAFREFFEEFLARLK; S1 amphipathic alpha-helix polypeptide core sequence selectively binds HDL, high-affinity ligand for ATP- binding cassette transporter A1 (ABCA1), ABCA1-lipid cholesterol efflux, ABCA1-stablization, anti-oxidant and anti-inflammatory activity)
- capacity to stimulate cholesterol efflux at 3 μg/ml: retained high capacity to stimulate cholesterol efflux; also recorded: retained high activity

Substance: R3→Q: SEQ ID NO:5 with arginine 3 replaced by glutamine (EVQSKLEEWFAAFREFFEEFLARLKS; S1 amphipathic alpha-helix polypeptide core sequence selectively binds HDL, high-affinity ligand for ATP- binding cassette transporter A1 (ABCA1), ABCA1-lipid cholesterol efflux, ABCA1-stablization, anti-oxidant and anti-inflammatory activity)
- ABCA1-dependent cholesterol efflux at 30 μg/ml: mediated cholesterol efflux in an ABCA1 dependent manner
- efficiency of ABCA1 cholesterol efflux (concentration dependence): high efficiency

Substance: R3, 14, 23→K3, 14, 23: SEQ ID NO:5 with lysine in place of arginine at positions 3, 14 and 23 (EVKSKLEEWFAAFKEFFEEFLAKLKS; S1 amphipathic alpha-helix polypeptide core sequence selectively binds HDL, high-affinity ligand for ATP- binding cassette transporter A1 (ABCA1), ABCA1-lipid cholesterol efflux, ABCA1-stablization, anti-oxidant and anti-inflammatory activity)
- ABCA1-dependent cholesterol efflux: stimulated ABCA1 cholesterol efflux
- cholesterol efflux from macrophages not induced for ABCA1 (non-specific): Low efflux

Substance: E1, 7, 8, 15, 18, 19>D: SEQ ID NO:5 with E1, 7, 8, 15, 18, 19 replaced with D (DVRSKLDDWFAAFRDFFDDFLARLKS; S1 amphipathic alpha-helix polypeptide core sequence selectively binds HDL, high-affinity ligand for ATP- binding cassette transporter A1 (ABCA1), ABCA1-lipid cholesterol efflux, ABCA1-stablization, anti-oxidant and anti-inflammatory activity)
- ABCA1-dependent cholesterol efflux: retained high capacity to stimulate cholesterol efflux in an ABCA1-dependent manner

Substance: 18-mer: SEQ ID NO:5 truncated from the C-terminal end to 18 residues (EVRSKLEEWFAAFREFFE; S1 amphipathic alpha-helix polypeptide core sequence selectively binds HDL, high-affinity ligand for ATP- binding cassette transporter A1 (ABCA1), ABCA1-lipid cholesterol efflux, ABCA1-stablization, anti-oxidant and anti-inflammatory activity)
- capacity to stimulate cholesterol efflux at 3 μg/ml: weakly active

Substance: EFRSKLEEWFAAFREFFEEFLARLKS (S2 amphipathic alpha-helix polypeptide core sequence selectively binds HDL, high-affinity ligand for ATP- binding cassette transporter A1 (ABCA1), ABCA1-lipid cholesterol efflux, ABCA1-stablization, anti-oxidant and anti-inflammatory activity) [SEQ ID NO:6]
- cholesterol efflux efficiency/potency on per molecule (molar) basis versus apolipoproteins (Km in molar units): activity similar to full-length Apo A-I, Apo E, and the C-terminal (CT) domain of Apo E

Substance: R3>L: SEQ ID NO:4 polypeptides with arginine at position 3 replaced by leucine (EVLSKLEEWFAAFREFAEEFLARLKS; ATI-5261 amphipathic alpha-helix polypeptide core sequence selectively binds HDL, high-affinity ligand for ATP-binding cassette transporter A1 (ABCA1), ABCA1-lipid cholesterol efflux, ABCA1-stablization, anti-oxidant and anti- inflammatory activity)
- ABCA1-dependent cholesterol efflux: relatively high-levels of cholesterol efflux
- cholesterol efflux from macrophages not induced for ABCA1 (non-specific): low-levels of cholesterol efflux

Substance: E8, 15→Q8, 15: SEQ ID NO:5 with two glutamate residues replaced with glutamine (EVRSKLEQWFAAFRQFFEEFLARLKS; S1 amphipathic alpha-helix polypeptide core sequence selectively binds HDL, high-affinity ligand for ATP- binding cassette transporter A1 (ABCA1), ABCA1-lipid cholesterol efflux, ABCA1-stablization, anti-oxidant and anti-inflammatory activity)
- cholesterol efflux from macrophages not induced for ABCA1 (non-specific): further augmented

Substance: 22-mer: SEQ ID NO:5 truncated from the C-terminal end to 22 residues (EVRSKLEEWFAAFREFFEEFLA; S1 amphipathic alpha-helix polypeptide core sequence selectively binds HDL, high-affinity ligand for ATP- binding cassette transporter A1 (ABCA1), ABCA1-lipid cholesterol efflux, ABCA1-stablization, anti-oxidant and anti-inflammatory activity)
- capacity to stimulate cholesterol efflux at 3 μg/ml: weakly active

Substance: R23→Q: SEQ ID NO:5 with arginine 23 replaced by glutamine (EVRSKLEEWFAAFREFFEEFLAQLKS; S1 amphipathic alpha-helix polypeptide core sequence selectively binds HDL, high-affinity ligand for ATP- binding cassette transporter A1 (ABCA1), ABCA1-lipid cholesterol efflux, ABCA1-stablization, anti-oxidant and anti-inflammatory activity)
- ABCA1-dependent cholesterol efflux at 30 μg/ml: mediated cholesterol efflux in an ABCA1 dependent manner
- efficiency of ABCA1 cholesterol efflux (concentration dependence): high efficiency

Substance: 23-mer: SEQ ID NO:5 with three residues deleted from the C-terminal end (EVRSKLEEWFAAFREFFEEFLAR; S1 amphipathic alpha-helix polypeptide core sequence selectively binds HDL, high-affinity ligand for ATP- binding cassette transporter A1 (ABCA1), ABCA1-lipid cholesterol efflux, ABCA1-stablization, anti-oxidant and anti-inflammatory activity)
- capacity to stimulate cholesterol efflux at 3 μg/ml: weakly active
